IntAct's records for PubMed 31515488

B1: Transcription factor 12 (Homo sapiens), Q99081-3 (parent)
chain: MNPQQQRMAAIGTDKELSDLLDFSAMFSPPVNSGKTRPTTLGSSQFSGSGIDERGGTTSWGTSGQPSPSYDSSRGFTDSPHYSDHLNDSRLGAHEGLSPTPFMNSNLMGKTSERGSFSLYSRDTGLPGCQSSLLRQDLGLGSPAQLSSSGKPGTAYYSFSATSSRRRPLHDSAALDPLQAKKVRKVPPGLPSSVYAPSPNSDDFNRESPSYPSPKPPTSMFASTFFMQDGTHNSSDLWSSSNGMSQPGFGGILGTSTSHMSQSSSYGNLHSHDRLSYPPHSVSPTDINTSLPPMSSFHRGSTSSSPYVAASHTPPINGSDSILGTRGNAAGSSQTGDALGKALASIYSPDHTSSSFPSNPSTPVGSPSPLTGTSQWPRPGGQAPSSPSYENSLHSLKNRVEQQLHEHLQDAMSFLKDVCEQSRMEDRLDRLDDAIHVLRNHAVGPSTSLPAGHSDIHSLLGPSHNAPIGSLNSNYGGSSLVASSRSASMVGTHREDSVSLNGNHSVLSSTVTTSSTDLNHKTQENYRGGLQSQSGTVVTTEIKTENKEKDENLHEPPSSDDMKSDDESSQKDIKVSSRGRTSSTNEDEDLNPEQKIEREKERRMANNARERLRVRDINEAFKELGRMCQLHLKSEKPQTKLLILHQAVAVILSLEQQVRERNLNPKAACLKRREEEKVSAVSAEPPTTLPGTHPGLSETTNPMGHM
partner: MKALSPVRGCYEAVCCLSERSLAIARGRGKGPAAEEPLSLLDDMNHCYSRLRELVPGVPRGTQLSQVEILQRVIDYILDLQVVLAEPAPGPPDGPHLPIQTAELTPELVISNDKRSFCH
B2: Coiled-coil domain-containing protein 106 (Homo sapiens), Q9BWC9 (parent)
chain: MNDRSSRRRTMKDDETFEISIPFDEAPHLDPQIFYSLSPSRRNFEEPPEAASSALALMNSVKTQLHMALERNSWLQKRIEDLEEERDFLRCQLDKFISSARMEAEDHCRMKPGPRRMEGDSRGGAGGEASDPESAASSLSGASEEGSASERRRQKQKGGASRRRFGKPKARERQRVKDADGVLCRYKKILGTFQKLKSMSRAFEHHRVDRNTVALTTPIAELLIVAPEKLAEVGEFDPSKERLLEYSRRCFLALDDETLKKVQALKKSKLLLPITYRFKR
B3: Myogenin (Homo sapiens), P15173 (parent)
chain: MELYETSPYFYQEPRFYDGENYLPVHLQGFEPPGYERTELTLSPEAPGPLEDKGLGTPEHCPGQCLPWACKVCKRKSVSVDRRRAATLREKRRLKKVNEAFEALKRSTLLNPNQRLPKVEILRSAIQYIERLQALLSSLNQEERDLRYRGGGGPQPGVPSECSSHSASCSPEWGSALEFSANPGDHLLTADPTDAHNLHSLTSIVDSITVEDVSVAFPDETMPN
partner: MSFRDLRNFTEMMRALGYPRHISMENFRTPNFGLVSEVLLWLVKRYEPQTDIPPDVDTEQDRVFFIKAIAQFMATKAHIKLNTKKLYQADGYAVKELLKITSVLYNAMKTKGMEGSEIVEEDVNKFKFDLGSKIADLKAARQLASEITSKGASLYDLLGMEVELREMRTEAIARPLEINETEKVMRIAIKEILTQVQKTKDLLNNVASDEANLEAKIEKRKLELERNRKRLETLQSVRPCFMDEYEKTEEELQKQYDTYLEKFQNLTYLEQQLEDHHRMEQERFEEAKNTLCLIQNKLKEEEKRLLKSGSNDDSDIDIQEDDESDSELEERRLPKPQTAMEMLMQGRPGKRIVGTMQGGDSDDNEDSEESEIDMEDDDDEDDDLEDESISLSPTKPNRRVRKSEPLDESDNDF
B4: PDZ and LIM domain protein 3 (Homo sapiens), Q53GG5 (parent)
chain: MPQTVILPGPAPWGFRLSGGIDFNQPLVITRITPGSKAAAANLCPGDVILAIDGFGTESMTHADAQDRIKAAAHQLCLKIDRGETHLWSPQVSEDGKAHPFKINLESEPQDGNYFEHKHNIRPKPFVIPGRSSGCSTPSGIDCGSGRSTPSSVSTVSTICPGDLKVAAKLAPNIPLEMELPGVKIVHAQFNTPMQLYSDDNIMETLQGQVSTALGETPLMSEPTASVPPESDVYRMLHDNRNEPTQPRQSGSFRVLQGMVDDGSDDRPAGTRSVRAPVTKVHGGSGGAQRMPLCDKCGSGIVGAVVKARDKYRHPECFVCADCNLNLKQKGYFFIEGELYCETHARARTKPPEGYDTVTLYPKA
B5: CD2 antigen cytoplasmic tail-binding protein 2 (Homo sapiens), O95400 (parent)
chain: MPKRKVTFQGVGDEEDEDEIIVPKKKLVDPVAGSGGPGSRFKGKHSLDSDEEEDDDDGGSSKYDILASEDVEGQEAATLPSEGGVRITPFNLQEEMEEGHFDADGNYFLNRDAQIRDSWLDNIDWVKIRERPPGQRQASDSEEEDSLGQTSMSAQALLEGLLELLLPRETVAGALRRLGARGGGKGRKGPGQPSSPQRLDRLSGLADQMVARGNLGVYQETRERLAMRLKGLGCQTLGPHNPTPPPSLDMFAEELAEEELETPTPTQRGEAESRGDGLVDVMWEYKWENTGDAELYGPFTSAQMQTWVSEGYFPDGVYCRKLDPPGGQFYNSKRIDFDLYT
B6: Ubl carboxyl-terminal hydrolase 18 (Homo sapiens), Q9UMW8 (parent)
chain: MSKAFGLLRQICQSILAESSQSPADLEEKKEEDSNMKREQPRERPRAWDYPHGLVGLHNIGQTCCLNSLIQVFVMNVDFTRILKRITVPRGADEQRRSVPFQMLLLLEKMQDSRQKAVRPLELAYCLQKCNVPLFVQHDAAQLYLKLWNLIKDQITDVHLVERLQALYTIRVKDSLICVDCAMESSRNSSMLTLPLSLFDVDSKPLKTLEDALHCFFQPRELSSKSKCFCENCGKKTRGKQVLKLTHLPQTLTIHLMRFSIRNSQTRKICHSLYFPQSLDFSQILPMKRESCDAEEQSGGQYELFAVIAHVGMADSGHYCVYIRNAVDGKWFCFNDSNICLVSWEDIQCTYGNPNYHWQETAYLLVYMKMEC
B7: Beta-taxilin (Homo sapiens), Q8N3L3 (parent)
chain: MEANHSEQLSAERQSTPPGDSSSLPSHNGLEKEDGQDSPTPVQPPEKEASVHPDISEELNRQLEDIINTYGSAASTAGKEGSARASEQPENAESPDNEDGDCEETTEEAGREPVASGEPPTVKEPVSNKEQKLEKKILKGLGKEANLLMQNLNKLQTPEEKFDFLFKKYAELLDEHRTEQKKLKLLQKKQVQIQKEKDQLQGEHSRAILARSKLESLCRELQRHNKTLKEEALQRAREEEEKRKEITSHFQSTLTDIQGQIEQQSERNMKLCQENTELAEKLKSIIDQYELREEHLDKIFKHRELQQKLVDAKLEQAQEMMKEAEERHKREKEYLLNQAAEWKLQAKVLKEQETVLQAQLTLYSGRFEEFQSTLTKSNEVFATFKQEMDKTTKKMKKLEKDTATWKARFENCNKALLDMIEEKALRAKEYECFVMKIGRLENLCRALQEERNELHKKIRDAEISEKDDQSQHNSDEEPESNVSVDQEIDAEEVNSVQTAVKNLATAFMIIHHPESTPHQSKETQPEIGSSQESADAALKEPEQPPLIPSRDSESPLPPLTPQAEAEGGSDAEPPSKASNSPAGLGAETQCEGLPVGAQADQASWKPEAEASGQAPQAPTEASLQKMEADVPAPACAAEEHVAAMVPACEPSRQPPRAAAEELPVGASAGPQPRNVADTNLEGVD

Variants of: B1
Details: with id3_human ID3, Q02535

effect of a mutation on the interaction | Variant
with no effect | N606H
with no effect | A482V

Variants of: B2
Details: with atf4_human ATF4, P18848
Chain of atf4_human ATF4, P18848 (P18848 whole entry): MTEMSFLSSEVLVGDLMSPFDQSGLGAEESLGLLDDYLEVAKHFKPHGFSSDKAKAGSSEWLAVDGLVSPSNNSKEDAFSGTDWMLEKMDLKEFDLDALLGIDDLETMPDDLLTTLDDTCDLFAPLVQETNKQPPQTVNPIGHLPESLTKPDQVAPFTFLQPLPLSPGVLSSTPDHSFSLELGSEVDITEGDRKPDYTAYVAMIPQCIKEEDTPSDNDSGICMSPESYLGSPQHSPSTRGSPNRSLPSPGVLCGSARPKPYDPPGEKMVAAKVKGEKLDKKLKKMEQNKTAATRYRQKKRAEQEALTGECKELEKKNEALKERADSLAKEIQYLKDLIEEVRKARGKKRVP

effect of a mutation on the interaction | Variant
with no effect | A54T

Variants of: B2
Details: with fam9b_human FAM9B

effect of a mutation on the interaction | Variant
with no effect | A54T

Variants of: B2
Details: with ptbp2_human PTBP2, Q9UKA9
Chain of ptbp2_human PTBP2, Q9UKA9 (Q9UKA9 whole entry): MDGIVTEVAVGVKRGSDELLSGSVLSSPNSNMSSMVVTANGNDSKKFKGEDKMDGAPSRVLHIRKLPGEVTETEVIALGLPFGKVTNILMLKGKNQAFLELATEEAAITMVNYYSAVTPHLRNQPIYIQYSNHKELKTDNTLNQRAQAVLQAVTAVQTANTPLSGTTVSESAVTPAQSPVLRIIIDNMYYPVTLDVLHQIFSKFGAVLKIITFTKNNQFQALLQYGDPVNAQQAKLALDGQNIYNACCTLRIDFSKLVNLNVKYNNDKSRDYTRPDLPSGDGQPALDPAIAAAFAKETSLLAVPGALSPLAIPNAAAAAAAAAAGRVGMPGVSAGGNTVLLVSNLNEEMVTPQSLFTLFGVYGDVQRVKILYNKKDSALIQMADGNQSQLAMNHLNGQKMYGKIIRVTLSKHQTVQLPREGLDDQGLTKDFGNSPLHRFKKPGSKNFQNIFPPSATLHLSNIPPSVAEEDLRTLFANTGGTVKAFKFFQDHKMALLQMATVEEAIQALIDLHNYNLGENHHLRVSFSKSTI

effect of a mutation on the interaction | Variant
with no effect | A54T

Variants of: B3
Details: with clua1_human CLUAP1, Q96AJ1

effect of a mutation on the interaction | Variant
with no effect | R147C
with no effect | P49H

Variants of: B4
Details: with actn2_human ACTN2, P35609
Chain of actn2_human ACTN2, P35609 (P35609 whole entry): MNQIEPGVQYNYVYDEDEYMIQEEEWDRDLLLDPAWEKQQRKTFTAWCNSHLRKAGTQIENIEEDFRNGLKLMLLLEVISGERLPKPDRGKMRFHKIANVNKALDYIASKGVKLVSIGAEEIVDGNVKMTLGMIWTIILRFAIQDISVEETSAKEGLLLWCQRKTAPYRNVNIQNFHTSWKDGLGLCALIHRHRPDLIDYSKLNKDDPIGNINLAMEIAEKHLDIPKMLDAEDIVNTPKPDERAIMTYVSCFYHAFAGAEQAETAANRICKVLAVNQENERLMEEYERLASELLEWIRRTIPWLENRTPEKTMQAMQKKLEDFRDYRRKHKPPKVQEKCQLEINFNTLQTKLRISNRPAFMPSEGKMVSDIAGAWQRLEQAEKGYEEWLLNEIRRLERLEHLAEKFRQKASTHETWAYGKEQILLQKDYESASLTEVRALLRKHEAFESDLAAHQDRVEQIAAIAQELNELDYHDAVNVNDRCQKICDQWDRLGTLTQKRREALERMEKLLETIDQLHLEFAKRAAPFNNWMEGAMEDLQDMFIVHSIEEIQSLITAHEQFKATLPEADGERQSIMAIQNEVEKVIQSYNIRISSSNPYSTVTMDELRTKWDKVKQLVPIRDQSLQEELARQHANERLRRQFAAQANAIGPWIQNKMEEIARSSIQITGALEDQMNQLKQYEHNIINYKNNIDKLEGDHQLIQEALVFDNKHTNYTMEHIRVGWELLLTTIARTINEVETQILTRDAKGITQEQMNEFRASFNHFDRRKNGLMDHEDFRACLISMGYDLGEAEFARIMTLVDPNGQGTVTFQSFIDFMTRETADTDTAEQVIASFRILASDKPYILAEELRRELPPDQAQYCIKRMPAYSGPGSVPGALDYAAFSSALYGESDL

effect of a mutation on the interaction | Variant
with no effect | T245I
with no effect | T279M

Variants of: B5
Details: with rsmb_human SNRPB

effect of a mutation on the interaction | Variant
with no effect | T262I

Variants of: B6
Details: with isg15_human ISG15, P05161
Chain of isg15_human ISG15, P05161 (P05161 whole entry): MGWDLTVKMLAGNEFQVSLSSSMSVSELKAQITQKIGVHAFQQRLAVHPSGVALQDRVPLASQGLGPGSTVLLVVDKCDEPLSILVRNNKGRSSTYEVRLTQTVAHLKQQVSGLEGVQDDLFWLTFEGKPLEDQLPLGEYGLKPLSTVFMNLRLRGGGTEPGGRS

effect of a mutation on the interaction | Variant
with no effect | T169M

Variants of: B7
Details: with cep70_human CEP70, Q8NHQ1
Chain of cep70_human CEP70, Q8NHQ1 (Q8NHQ1 whole entry): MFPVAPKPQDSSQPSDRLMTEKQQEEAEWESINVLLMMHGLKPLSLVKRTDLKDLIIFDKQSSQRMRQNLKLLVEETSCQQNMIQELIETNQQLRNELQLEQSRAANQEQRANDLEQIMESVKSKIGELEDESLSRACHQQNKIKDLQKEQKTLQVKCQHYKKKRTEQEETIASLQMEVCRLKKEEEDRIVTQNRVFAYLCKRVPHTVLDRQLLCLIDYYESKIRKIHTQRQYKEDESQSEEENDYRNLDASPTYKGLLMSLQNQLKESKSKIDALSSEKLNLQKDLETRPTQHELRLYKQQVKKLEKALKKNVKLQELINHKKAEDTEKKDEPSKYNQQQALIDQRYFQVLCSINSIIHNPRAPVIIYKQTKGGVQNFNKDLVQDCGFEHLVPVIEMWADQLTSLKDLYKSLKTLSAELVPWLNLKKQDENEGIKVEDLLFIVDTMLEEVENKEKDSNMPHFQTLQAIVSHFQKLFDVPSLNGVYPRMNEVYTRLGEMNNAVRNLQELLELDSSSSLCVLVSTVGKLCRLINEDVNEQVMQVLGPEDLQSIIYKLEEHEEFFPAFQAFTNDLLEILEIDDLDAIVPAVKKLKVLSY

effect of a mutation on the interaction | Variant
with no effect | T361A
